# Measured values reported in article PMC5031558.
# Biological target: HOIP PUB domain (aa 1–184) (UniProt Q96EP0)
# Experiment: fluorescence polarisation; FITC-Ahx-labeled PIM peptides with purified PUB domains; triplicate
# HOIP PUB domain (aa 1–184), sequence (Q96EP0 1-184): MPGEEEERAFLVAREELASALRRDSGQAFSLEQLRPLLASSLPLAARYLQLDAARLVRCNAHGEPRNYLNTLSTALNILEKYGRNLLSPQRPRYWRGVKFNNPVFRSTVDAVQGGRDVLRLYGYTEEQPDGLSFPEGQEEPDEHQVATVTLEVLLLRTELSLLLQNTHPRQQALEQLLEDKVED
row,Kd [nM],Substance
1,300,FITC-Ahx-labeled OTULIN PIM peptide
2,300,FITC-Ahx-labeled SPATA2 PIM peptide
